Read-outs that look alike come from different tables or passages of the source. Square brackets hold non-standard residues; d marks the D form. Ends that are not written are not given here. Peptide text beside a SMILES is read from it. pS = N[C@@H](COP(=O)(O)O)C(=O)O
Legend:
[1] = target: T1, pΔPH-PKB-ΔC (PKBβ residues 146 to 460, phosphorylated in vitro on Thr-309) (Homo sapiens, UniProt P31751); experiment: Protein kinase B assay, peptide stimulation of pΔPH-PKB-ΔC (Crosstide substrate); type: biochemical; conditions: for maximal fold induction at 600 µM: read-out: maximum activation (fold stimulation) of pΔPH-PKB-ΔC kinase activity; for fold lower affinity than PIFtide (from EC50 values): relative to PIFtide
T1 construct: pΔPH-PKB-ΔC (residues 146 to 460, phosphorylated in vitro on Thr-309); 6xHis (pFastBacHTa, TEV-cleavable) (N, cleaved yes); made in house; host or cells: Sf9 insect cells / baculovirus
T1 sequence (P31751 146-460, stated change not applied): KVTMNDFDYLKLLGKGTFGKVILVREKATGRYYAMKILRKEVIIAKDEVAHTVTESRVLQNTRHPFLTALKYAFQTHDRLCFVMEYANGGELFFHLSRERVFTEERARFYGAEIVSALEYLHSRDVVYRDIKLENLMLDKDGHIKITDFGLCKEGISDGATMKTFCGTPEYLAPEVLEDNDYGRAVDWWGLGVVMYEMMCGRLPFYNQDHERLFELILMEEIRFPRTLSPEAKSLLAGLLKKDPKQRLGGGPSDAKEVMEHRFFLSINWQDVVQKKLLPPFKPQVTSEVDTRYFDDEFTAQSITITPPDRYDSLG
Procedure: To test the model that Ser 474 phosphorylation promotes an interaction between the hydrophobic motif and the induced hydrophobic groove of the N-terminal lobe, thereby causing an allosteric activation of the kinase, the ability of peptides modelled on the hydrophobic motif of PKB to activate the enzyme via an intermolecular association with the N-terminal lobe was assessed.
(§1) PKB was assayed essentially as described by Andjelkovic et al. (1999) with 30 μM Crosstide (GRPRTSSAEG) as substrate except the protein kinase A inhibitor peptide was not added to the reactions. For peptide stimulation experiments the various peptides were dissolved in water and added to the kinase assay mix prior to adding the PKB protein. Peptides were synthesized by Franz Fischer at the FMI or purchased from Neosystem, Strasburg, France.
(§2) All experiments were performed in either duplicate or triplicate.

[2] = target: T2, His tagged pΔPH-PKB-ΔC wild type (Homo sapiens, UniProt P31751); experiment: PIFtide responsiveness of His tagged pΔPH-PKB-ΔC wild type expressed in HEK cells; type: biochemical
T2 construct: pΔPH-PKB-ΔC (residues 146 to 460, phosphorylated in vitro on Thr-309); His tag; made in house; host or cells: HEK cells (transient expression), purified on Ni-NTA
T2 sequence (P31751 146-460, stated change not applied): as above
Procedure: To test the notion that a hydrophobic groove is induced in PKB to engage the hydrophobic motif, and activate the kinase, a series of His tagged pΔPH-PKB-ΔC hydrophobic groove mutants was prepared and their responsiveness to PIFtide assessed. PKB mutants were transiently expressed in HEK cells, phosphorylated in vitro with PDK1, and purified using Ni-NTA agarose.
Wild type PKB prepared using this procedure was stimulated ˜5-fold by 130 μM PIFtide (FIG. 6B).
as §1

[3] = target: T3, ΔPH-PKB phosphorylated on Thr 309 (Homo sapiens, UniProt P31751); experiment: Protein kinase B assay, peptide stimulation of ΔPH-PKB phosphorylated on Thr 309; type: biochemical
T3 construct: ΔPH-PKBβ (residues 146-481) on Thr309 Using PDK1; 6xHis (pFastBacHTa, TEV-cleavable) (N, cleaved yes); made in house; host or cells: Sf9 insect cells / baculovirus
T3 sequence (P31751 146-481, stated change not applied): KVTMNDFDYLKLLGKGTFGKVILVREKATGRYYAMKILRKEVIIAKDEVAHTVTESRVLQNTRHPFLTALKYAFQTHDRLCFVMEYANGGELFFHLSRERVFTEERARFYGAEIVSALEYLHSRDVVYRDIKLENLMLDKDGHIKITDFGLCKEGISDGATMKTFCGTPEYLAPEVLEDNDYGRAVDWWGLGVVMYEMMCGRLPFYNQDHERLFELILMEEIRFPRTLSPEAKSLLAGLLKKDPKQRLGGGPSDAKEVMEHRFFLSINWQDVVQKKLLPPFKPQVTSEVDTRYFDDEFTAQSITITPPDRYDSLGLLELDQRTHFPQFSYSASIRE
Procedure: as §1, §2

[4] = target: T4, ΔPH-PKB-ΔC (PKBβ residues 146 to 460, not phosphorylated on Thr-309) (Homo sapiens, UniProt P31751); experiment: Protein kinase B assay, peptide stimulation of ΔPH-PKB-ΔC with unphosphorylated Thr 309; type: biochemical
T4 construct: ΔPH-PKB-ΔC(residues 146 to 460, not phosphorylated on Thr-309); 6xHis (pFastBacHTa, TEV-cleavable) (N, cleaved yes); made in house; host or cells: Sf9 insect cells / baculovirus
T4 sequence (P31751 146-460, stated change not applied): as the sequence (P31751 146-460, stated change not applied) above
Procedure: as §1, §2

[5] = target: T5, ΔPH-PKB phosphorylated on both Thr 309 and Ser 474 (Homo sapiens, UniProt P31751); experiment: Protein kinase B assay, peptide stimulation of ΔPH-PKB phosphorylated on both Thr 309 and Ser 474; type: biochemical
T5 construct: ΔPH-PKBβ (residues 146-481) on Thr309 Using PDK1; 6xHis (pFastBacHTa, TEV-cleavable) (N, cleaved yes); made in house; host or cells: Sf9 insect cells / baculovirus
T5 sequence (P31751 146-481, stated change not applied): as the sequence (P31751 146-481, stated change not applied) above
Procedure: as §1, §2

[6] = target: His tagged pΔPH-PKB-ΔC V194A-V198A mutant (human) (UniProt P31751); experiment: cell-based or functional assay
His tagged pΔPH-PKB-ΔC V194A-V198A mutant (human), sequence (P31751 146-460 V194A/V198A): as the sequence (P31751 146-460, stated change not applied) above, with V49A, V53A counted along it

[7] = target: pΔPH-PKBβ-ΔC (human PKBβ residues 146-460, phosphorylated in vitro on Thr-309) (human) (UniProt P31751); experiment: cell-based or functional assay
[8] = target: ΔPH-PKB (human PKBβ residues 146-481) phosphorylated on Thr 309 (human) (UniProt P31751); experiment: cell-based or functional assay
[9] = target: His tagged pΔPH-PKB-ΔC, wild type, expressed in HEK cells (human) (UniProt P31751); experiment: cell-based or functional assay
His tagged pΔPH-PKB-ΔC, wild type, expressed in HEK cells (human), sequence (P31751 146-460, stated change not applied): as the sequence (P31751 146-460, stated change not applied) above

[10] = target: pΔPH-PKBβ-ΔC (human PKBβ residues 146-460, phosphorylated in vitro on Thr-309) (human) (UniProt P31751); experiment: isothermal titration calorimetry, PIFtide titrated into the kinase domain
[11] = target: ΔPH-PKBβ-ΔC (human PKBβ residues 146-460, not phosphorylated on Thr-309) (human) (UniProt P31751); experiment: as above
[12] = target: ΔPH-PKBβ-ΔC (human PKBβ residues 146-460, not phosphorylated on Thr-309) (human) (UniProt P31751); experiment: isothermal titration calorimetry
[13] = target: pΔPH-PKBβ-ΔC (human PKBβ residues 146-460, phosphorylated in vitro on Thr-309) (human) (UniProt P31751); experiment: cell-based or functional assay; remark: listed apart in the source

CC[C@H](C)[C@H](NC(=O)[C@H](Cc1ccc(O)cc1)NC(=O)[C@H](CC(=O)O)NC(=O)[C@H](Cc1ccccc1)NC(=O)[C@H](CC(=O)O)NC(=O)[C@H](CCCNC(=N)N)NC(=O)[C@H](Cc1ccccc1)NC(=O)[C@H](CCSC)NC(=O)[C@H](CCC(=O)O)NC(=O)[C@H](CCC(N)=O)NC(=O)[C@H](CCC(=O)O)NC(=O)[C@H](CCC(=O)O)NC(=O)[C@H](CCC(=O)O)NC(=O)[C@H](CO)NC(=O)[C@H](CC(C)C)NC(=O)[C@@H](NC(=O)[C@H](CCCNC(=N)N)NC(=O)[C@@H]1CCCN1C(=O)[C@H](CCC(=O)O)NC(=O)[C@@H](N)CCCNC(=N)N)[C@@H](C)CC)C(=O)N[C@@H](C)C(=O)N[C@@H](CC(=O)O)C(=O)N[C@@H](Cc1c[nH]c2ccccc12)C(=O)O [PIFtide, reference compound] (H-REPRILSEEEQEMFRDFDYIADW-OH; N-terminus and C-terminus assumed)
maximal fold induction at 600 µM [1]: 15
fold induction at 130 µM ([2]; read-out: stimulation of wild type PKB prepared from HEK cells): ~5
activation of ΔPH-PKB phosphorylated on Thr 309 [3]: 5 fold

CC[C@H](C)[C@H](NC(=O)[C@H](CO)NC(=O)[C@H](C)NC(=O)[C@H](CO)NC(=O)[C@H](Cc1ccc(O)cc1)NC(=O)[C@H](CC(=O)O)NC(=O)[C@H](Cc1ccccc1)NC(=O)[C@H](CCC(N)=O)NC(=O)[C@@H]1CCCN1C(=O)[C@H](Cc1ccccc1)NC(=O)[C@H](Cc1c[nH]cn1)NC(=O)[C@@H](NC(=O)[C@H](CCCNC(=N)N)NC(=O)[C@H](CCC(N)=O)NC(=O)[C@H](CC(=O)O)NC(=O)[C@H](CC(C)C)NC(=O)[C@H](CCC(=O)O)NC(=O)[C@H](CC(C)C)NC(=O)[C@H](CC(C)C)NC(=O)CN)[C@@H](C)O)C(=O)N[C@@H](CCCNC(=N)N)C(=O)N[C@@H](CCC(=O)O)C(=O)O [PKB HM-D] (H-GLLELDQRTHFPQFDYSASIRE-OH; N-terminus and C-terminus assumed)
maximal fold induction at 600 µM [1]: 3
fold lower affinity than PIFtide (from EC50 values) [1]: ~1000 fold

CC[C@H](C)[C@H](NC(=O)[C@H](CO)NC(=O)[C@H](C)NC(=O)[C@H](CO)NC(=O)[C@H](Cc1ccc(O)cc1)NC(=O)[C@H](COP(=O)(O)O)NC(=O)[C@H](Cc1ccccc1)NC(=O)[C@H](CCC(N)=O)NC(=O)[C@@H]1CCCN1C(=O)[C@H](Cc1ccccc1)NC(=O)[C@H](Cc1c[nH]cn1)NC(=O)[C@@H](NC(=O)[C@H](CCCNC(=N)N)NC(=O)[C@H](CCC(N)=O)NC(=O)[C@H](CC(=O)O)NC(=O)[C@H](CC(C)C)NC(=O)[C@H](CCC(=O)O)NC(=O)[C@H](CC(C)C)NC(=O)[C@H](CC(C)C)NC(=O)CN)[C@@H](C)O)C(=O)N[C@@H](CCCNC(=N)N)C(=O)N[C@@H](CCC(=O)O)C(=O)O [PKB HM-P, GLLELDQRTHFPQFpSYSASIRE] (H-GLLELDQRTHFPQF[pS]YSASIRE-OH; N-terminus and C-terminus assumed)
activation of ΔPH-PKB-ΔC with unphosphorylated Thr 309 (in words) [4]: unable to activate
further activation of ΔPH-PKB phosphorylated on both Thr 309 and Ser 474 (in words) [5]: did not further activate
maximal fold induction at 600 µM [1]: 4
fold lower affinity than PIFtide (from EC50 values) ([1]; listed as phosphorylated HM-peptide): ~1000 fold
activation of wild type PKB prepared from HEK cells (in words) [2]: did not elicit measurable activation

GLLELDQRTHFPQFSYSASIRE [PKB HM-S]
stimulation of pΔPH-PKB-ΔC kinase activity (in words) ([1]; Crosstide substrate, dose response FIG. 5): did not stimulate

MFRDFDYIADW [PIFtide1, 11-residue peptide encompassing the six-residue hydrophobic motif of PIFtide]
activation of pΔPH-PKB-ΔC by modified PIFtide and HM peptides (in words) ([1]; PIFtide concentrations 210-250 μM, PKB HM-peptide up to 1.2 mM, FIG. 6A): essentially recapitulates the activation

PIFtide (peptide)
PIFtide activation relative to wild type (% of wild type) [6]: 25
EC50 of kinase activation [7]: 3 µM
peptide concentration giving maximum activation [7]: 20 µM
specific activity when maximally activated by PIFtide [7]: 350 nmol/min/mg
stimulation of kinase activity towards Crosstide [7]: 15 fold
stimulation of kinase activity towards Crosstide [8]: 5 fold
stimulation of kinase activity by 130 µM PIFtide [9]: 5 fold
Kd [10]: 6 µM
Kd [11]: 5.5 µM
enthalpy change (ΔH) [12]: -16 kcal/mol
entropy term (TΔS) [12]: -9.2 kcal/mol

GLLELDQRTHFPQF[pS]YSASIRE [PKB HM-P]
EC50 of kinase activation (estimated from FIG. 5A) [13]: 2.3 mM
fold lower affinity than PIFtide, from estimated EC50 [13]: 1000 fold
stimulation of kinase activity towards Crosstide [13]: 4 fold

GLLELDQRTHFPQFDYSASIRE [PKB HM-D]
EC50 of kinase activation (estimated from FIG. 5A) [13]: 3.6 mM
fold lower affinity than PIFtide, from estimated EC50 [13]: 1000 fold
stimulation of kinase activity towards Crosstide [13]: 3 fold

Source: patent publication US20040005687A1, “Kinase crystal structures” (priority 2001, published 2004)
